Measured values as given in patent publication US20080113907A1, “Uses Of Galectin-2” (Charite-Universitat-Smedizin Berlin, priority 2004, published 2008).

Tests used:
[1] = test system: acute and chronic DSS colitis; assay: Dose finding studies in acute and chronic DSS colitis; assay type: in vivo, BALB/c mice
Procedure: Acute and chronic colitis were induced in BALB/c mice by adding 5% DSS to the drinking water for 7 days to induce acute colitis, or for 3 cycles of 7 days DSS following 7 days without DSS to induce chronic colitis, respectively (Siegmund B, Lehr H A, Fantuzzi G. Leptin: a pivotal mediator of intestinal inflammation in mice. Gastroenterology 2002; 122: 2011-2025). Animals with acute or chronic colitis were treated i.p. with either physiological NaCl as control or Gal-2 once daily (od), twice daily (bid) or three time daily (tid) for 10 days. In one experimental protocol Gal-2 and NaCl 0.9% were injected subcutaneously. Gal-2 doses ranging from 0.5-2 mg/kg body weight in individual doses and total daily doses of 3 mg/kg body weight and different dosing regimens were evaluated. Tacrolimus (1 mg/kg bodyweight), Infliximab (10 mg/kg bodyweight), prednisolone (1 mg/kg bodyweight), all well-known modulators of experimental colitis and human inflammatory bowel diseases were used as positive controls.
PBT were isolated, stimulated with CD3 for 3 days and cytokine secretion was determined by cytometric bead array (CBA) analysis as described previously (Sturm A, Rilling K, Baumgart D C, Gargas K, Abou-Ghazale T, Raupach B, Eckert J, Schumann R R, Enders C, Sonnenborn U, Wiedenmann B, Dignass A U. Escherichia coli Nissle 1917 distinctively modulates T-cell cycling and expansion via toll-like receptor 2 signaling. Infect.Immun. 2005; 73: 1452-1465.) Mucosal recruitment of granulocytes was assessed by Myeloperoxidase activity (Rath H C, Herfarth H H, Ikeda J S, Grenther W B, Hamm T E, Jr., Balish E, Taurog J D, Hammer R E, Wilson K H, Sartor R B. Normal Luminal Bacteria, Especially Bacteroides Species, Mediate Chronic Colitis, Gastritis, and Arthritis in HLA-B27/Human beta 2 Microglobulin Transgenic Rats. Journal of Clinical Investigation 1996; 98: 945-953).

[2] = Toxicity study with supratherapeutic dose in healthy mice; assay type: in vivo, Balb/c mice
Procedure: In addition, Balb/c mice (not treated with DSS) were treated with 100 mg/kg body weight-Galectin-2, a dose that was up to 50-fold higher than doses of Galectin-2 that caused optimal anti-inflammatory effects in DSS treated mice (optimal therapeutic doses ranged from 1.5-3 mg/kg body weight per day). In these toxicity studies Balb/c mice (n=5), weighing on average 20 g, were treated with 100 mg/kg body weight Galectin-2 once daily i.p. for 5 days. The mice gained about 7±1.7% weight during the 5 day treatment period. […] The mice were sacrificed following the 5 day treatment period and organs were collected for pathological assessment by an experienced pathologist.

[3] = test system: PBT; assay: Extent of apoptosis and necrosis (annexin-V, PI, DAPI staining); assay type: cell-based, human
Procedure: Apoptosis was determined by monitoring fragmentation of nuclear DNA and access of annexin V to c ell surface phosphatidylserine (PS). To detect fragmentation of nuclear DNA, T cells were cultured in the presence and absence of the respective galectins, with or without blocking antibodies or further activation for 48 h. Thereafter, cells were fixed in 0.2 ml of 37% formaldehyde for 10 min at room temperature. The cells were then treated with 1 ml PBS containing 0.2% Nonidet P-40 (Sigma-Aldrich) for 2 min at room temperature and then rinsed once in PBS. The apoptotic cells were detected by staining of nuclear DNA with 4,6-diamino-2-phenylindole (DAPI) (Calbiochem). DAPI was added at a concentration of 0.2 ng/ml of PBS and cells were incubated at room temperature for 20 min in this solution. Cells were rinsed twice in PBS and the coverslips were maintained cell side down on a microscope slide and analyzed using a Zeiss Axiovert 135M microscope (Carl Zeiss, Oberkochen, Germany). To detect early phases of apoptosis, access to PS was measured. Cells were cultured as described, harvested at the respective time points, stained with FITC-labeled annexin-V and PI and analyzed by flow cytometry using the CellQuest software program (BD Pharmingen). A minimum of 15,000 cells was monitored in each case.

[4] = test system: PBT; assay: Mitochondrial membrane potential (rhodamine 123); assay type: cell-based, human; conditions: CD3 activated PBT, 50 μg/ml
Description: Rhodamine 123 is a fluorescent cationic dye that accumulates in the mitochondrial matrix because of its charge and solubility in both the inner mitochondrial membrane and matrix space (22). Based on the observation that accumulation of this lipophilic dye is in proportion to ΔΨ, and that deenergizing of the mitochondria decreases rhodamine 123 fluorescence (23), the inventors measured the mitochondrial membrane potential of PBT. Cells were stimulated in the presence or absence of galectin-2 with CD3 for 24 h, harvested, washed and resuspended in 1 ml of rhodamine 123 (10 μg/ml, Sigma-Aldrich) for 30 min at 37° C. in the dark. The samples were washed twice in cold PBS and fluorescence analysis by flow cytometry using an argon ion laser with an emission filter at 530 nm was performed immediately without fixation (BD FacsCalibur). PBT without stimulation and unstained samples were used as controls.

[5] = 100 mg/kg once daily i.p. for 5 days

B1: galectin-2: β-galactoside binding lectin, non-covalent dimer with subunits of about 14 kDa; recombinant human or rat (SEQ ID NO:1, 2) (protein)
chain: MAGELEVKNMDMKPGSTLKITGSIADGTDGFVINLGQGTDKLNLHFNPRFSESTIVCNSLDGSNWGQEQREDHLCFSPGSEVKFTVTFESDKFKVKLPDGHELTFPNRLGHSHLSYLSVRGGFNMSSFKLKE
effect on disease activity (DAI) ([1]; acute and chronic DSS colitis, i.p., different dosing intervals and doses): significantly reduced disease activity
safety and toxicity ([1]; acute and chronic DSS model): did not reveal any abnormalities
myeloperoxidase, mucosal granulocyte infiltration ([1]; data not shown): significant reduction of mucosal granulocyte infiltration
deaths ([1]; doses 1-3 mg/kg body weight): no deaths were observed
human versus rat Gal-2, disease activity ([1]; equivalent doses and treatment regimens): No significant differences were observed
improvement of disease activity ([1]; optimal dose 2×1 mg/kg bodyweight): more than 250%
total daily dose range with largest benefit on disease activity ([1]; per day): 1.5-3 mg/kg bodyweight
effect on disease activity (DAI) ([1]; subcutaneous (sc) administration): only in minor and not significant improvement of disease activity
effects compared with positive controls ([1]; tacrolimus 1 mg/kg, infliximab 10 mg/kg, prednisolone 1 mg/kg): comparable with the potent immunomodulator tacrolimus and more potent as the effects observed for prednisolone and infliximab
histological analyses of intestinal injury and inflammation ([1]; versus control animals): significant reduction of intestinal injury and inflammation
mortality [2, 5]: None of these animals died
pathological assessment of heart, kidney, lung, liver [2, 5]: did not reveal any microscopic or macroscopic damage
weight gain [2, 5]: about 7±1.7%
highest dose evaluated relative to optimal dose ([2]; 100 mg/kg versus 2×1 mg/kg): about 50 fold
dose limiting toxicities ([2]; broad dose range up to 100 mg/kg): no dose limiting toxicities were observed
time to induction of apoptosis [3]: 6 to 12 h
time course of annexin-V staining ([3]; 50 μg/ml, anti-CD3): gradual increase over 72 h
nuclear fragmentation (DAPI staining) ([3]; 25 and 50 μg, data not shown): induce nuclear fragmentation
T cell apoptosis (annexin-V) ([3]; PBT activated by anti-CD3 mAbs): induced a dose-dependent apoptosis
T cell necrosis (PI) ([3]; PBT activated by anti-CD3 mAbs): albeit to a much lesser extent, necrosis
apoptosis of T cells from patients with RA or CD ([3]; anti-CD3, 48 hours, 0, 10, 25, 50 μg/ml): induces apoptosis
percentage of T cell apoptosis relative to galectin-1 ([3]; anti-CD3 activated PBT): higher than that induced by galectin-1
apoptosis in CD4 and CD8 positive T cell populations ([3]; data not shown): comparable in CD4 and CD8 positive T cell populations
T cell apoptosis (annexin-V) ([3]; without cell stimulation, 0, 10, 25, 50, 100 μg/ml): failed to induce T cells apoptosis
mitochondrial polarization potential [4]: clear decrease in the mitochondrial polarization potential
